Assays:
Human PD-L2-HIS (human) [1] = molecular target: Human PD-L2-HIS (human) (UniProt Q9BQ51); test: Octet binning; competitor MIH18
Human PD-L2-HIS (human) [2] = molecular target: Human PD-L2-HIS (human) (UniProt Q9BQ51); test: Octet binning; competitor PDL2-21
Human PD-L2-HIS (human) [3] = molecular target: Human PD-L2-HIS (human) (UniProt Q9BQ51); test: Octet binning; competitor PDL2-23
Human PD-L2-HIS (human) [4] = molecular target: Human PD-L2-HIS (human) (UniProt Q9BQ51); test: Octet binning; competitor 24F.10C12
Human PD-L2-HIS (human) [5] = molecular target: Human PD-L2-HIS (human) (UniProt Q9BQ51); test: Octet binning; competitor BiPDL4-11
Human PD-L2-HIS (human) [6] = molecular target: Human PD-L2-HIS (human) (UniProt Q9BQ51); test: Octet binning; competitor BiPDL4-12
Human PD-L2-HIS (human) [7] = molecular target: Human PD-L2-HIS (human) (UniProt Q9BQ51); test: Octet binning; competitor BiPDL4-13
Human PD-L2-HIS (human) [8] = molecular target: Human PD-L2-HIS (human) (UniProt Q9BQ51); test: Octet binning; competitor BiPDL4-14
Human PD-L2-HIS (human) [9] = molecular target: Human PD-L2-HIS (human) (UniProt Q9BQ51); test: Octet binning; competitor PDL2-13 (column 7)
Human PD-L2-HIS (human) [10] = molecular target: Human PD-L2-HIS (human) (UniProt Q9BQ51); test: Octet binning; competitor PDL2-13 (column 11)
PD-1 (on Jurkat T Cell) [11] = molecular target: PD-1 (on Jurkat T Cell)
PD-1 (on Jurkat T Cell) [12] = molecular target: PD-1 (on Jurkat T Cell); remark: listed apart in the source

Chain of Human PD-L2-HIS (human) (Q9BQ51 20-220): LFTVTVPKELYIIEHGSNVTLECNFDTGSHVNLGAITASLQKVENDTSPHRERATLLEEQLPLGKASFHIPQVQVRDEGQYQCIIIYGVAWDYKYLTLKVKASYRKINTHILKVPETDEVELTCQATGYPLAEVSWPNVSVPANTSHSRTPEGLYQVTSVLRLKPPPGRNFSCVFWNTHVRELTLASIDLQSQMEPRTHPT

Row | Substance | % of unblocked Ab2 binding signal (Human PD-L2-HIS (human) [1]) [%] | % of unblocked Ab2 binding signal (Human PD-L2-HIS (human) [2]) [%] | % of unblocked Ab2 binding signal (Human PD-L2-HIS (human) [3]) [%] | % of unblocked Ab2 binding signal (Human PD-L2-HIS (human) [4]) [%] | % of unblocked Ab2 binding signal (Human PD-L2-HIS (human) [5]) [%] | % of unblocked Ab2 binding signal (Human PD-L2-HIS (human) [6]) [%] | % of unblocked Ab2 binding signal (Human PD-L2-HIS (human) [7]) [%] | % of unblocked Ab2 binding signal (Human PD-L2-HIS (human) [8]) [%] | % of unblocked Ab2 binding signal (Human PD-L2-HIS (human) [9]) [%] | % of unblocked Ab2 binding signal (Human PD-L2-HIS (human) [10]) [%] | EC50 (read off the curve); Fold induction of luciferase, Promega: CHO-PD-L1/PD-L2 dual cells with PD-1 Jurkat reporter cells (PD-1 (on Jurkat T Cell) [11]) [nM] | EC50 (read off the curve); Luc Activity, Promega CHO-PDL1/PD-L2 dual cells with NFAT-Luc Jurkat T cells (PD-1 (on Jurkat T Cell) [12]) [nM]
1 | 24F.10C12 (antibody) | 63.8 | 5.24 | 5.98 | 4.99 | 50.5 | 57.5 | 56.9 | 62.8 | 7.11 | 6.3 |  | 
2 | Keytruda (antibody) |  |  |  |  |  |  |  |  |  |  | 0.7 | 2
3 | MIH18 (antibody) | 5.73 | 74.7 | 70.3 | 71.4 | 47.9 | 60.6 | 57 | 63.4 | 73.7 | 82.5 |  | 

Source: patent US20250059282A1
